The series in a line: self-splicing fitness, log relative to wild type (ln ratio); higher = more splicing; Tetrahymena group I intron in knt gene, E. coli kanamycin selection, DiMSum; sequences stand for … in CUCUCU…GGAGGGAAAAGUUAUCAGGCAUGCACCUGGUAGCUAGUCUUUAAACCAAUAGAUUGCAUCGGUUUAAAAGGCAAGACCGUCAAAUUGCGGGAAAGGGGUCAACAGCCGUUCAGUACCAAGUCUCAGGGGAAACUUUGAGAUGGCCUUGCAAAGGGUAUGGUAAUAAGCUGACGGACAUGGUCCUAACCACGCAGCCAAGUCCUAAGUCAACAGAUCUUCUGUUGAUAUGGAUGCAGUUCACAGACUAAAUGUCGGUCGGGGAAGAUGUAUUCUUCUCAUAAGAUAUAGUCGGACCUCUCCUUAAUGGGAGCUAGCGGAUGAAGUGAUGCAACACUGGAGCCGCUGGGAACUAAUUUGUAUGCGAAAGUAUAUUGAUUAGUUUUGGAGUACUCGUGGUCG
In outline: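 DiMSum derived fitness as the error-weighted combination of fold changes across replicates, kanamycin versus no kanamycin, normalised to wild type. E. coli BL21(DE3) held the library, which randomised all eight P1ex-region intron nucleotides within the knt kanamycin-resistance gene on pET-22b(+). Six replicate transformations grew overnight at 37°C or 30°C on LB agar with or without 25 μg/mL kanamycin, also containing 100 μg/mL carbenicillin, 50 μM IPTG and 0.2% rhamnose, and pooled colonies were amplicon-sequenced on an Illumina HiSeq 2500.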

± gives the uncertainty stated by the source.

On to AUUAAGCAAUAUUACGGUUG, for which the “self-splicing fitness (ln)” value is, setting by setting: (30 °C) -3.08 ± 0.21; (37 °C) -2.56 ± 0.24.

Consider AUGAAGCAAUAUUACGGGGU, for which the “self-splicing fitness (ln)” value was -2.79 ± 0.23 (30 °C) and -1.21 ± 0.17 (37 °C). For AAGCAGCAAUAUUACGAUUA the same measures were -1.4 ± 0.077 and -0.962 ± 0.066. For CAAAAGCAAUAUUACGUCAC the same measures were -3.63 ± 0.28 and -2.06 ± 0.2.

As for UAAUAGCAAUAUUACGACGC, the “self-splicing fitness (ln)” value (30 °C) was -2.84 ± 0.34. With ACUAAGCAAUAUUACGUCAA, the “self-splicing fitness (ln)” value (30 °C) is -3.07 ± 0.17 and the “self-splicing fitness (ln)” value (37 °C) is -1.35 ± 0.14. For GUCAAGCAAUAUUACGACGC the same measures were -1.35 ± 0.11 and 0.832 ± 0.18.

As for ACCAAGCAAUAUUACGUCCC, the “self-splicing fitness (ln)” value is -2.14 ± 0.12 (30 °C) and -0.924 ± 0.17 (37 °C). Regarding CUUAAGCAAUAUUACGAUCC, the “self-splicing fitness (ln)” value (30 °C) was -3.31 ± 0.44. On to GUGCAGCAAUAUUACGCGGG, for which the “self-splicing fitness (ln)” value is -2.81 ± 0.36 (30 °C) and -1.03 ± 0.2 (37 °C). Consider AAUGAGCAAUAUUACGAUGU, for which the “self-splicing fitness (ln)” value reads like this: (30 °C) -2.94 ± 0.15; (37 °C) -1.97 ± 0.17. For ACUUAGCAAUAUUACGCCUA the same measures were -0.829 ± 0.29 and 0.394 ± 0.2. For GUUUAGCAAUAUUACGUGGG the same measures were -3.78 ± 0.37 and -2.45 ± 0.23. For CCCGAGCAAUAUUACGGGCC the same measures were -3.99 ± 0.27 and -2.26 ± 0.26. For AUAAAGCAAUAUUACGGAGA, the “self-splicing fitness (ln)” value was -3.18 ± 0.19 (30 °C) and -1.86 ± 0.19 (37 °C). The matching figures for CGUCAGCAAUAUUACGUACC: -1.33 ± 0.13 and 0.208 ± 0.15.

Regarding AACGAGCAAUAUUACGCCCG, the “self-splicing fitness (ln)” value was -1.98 ± 0.32 (30 °C) and -0.148 ± 0.33 (37 °C).

As to GCUGAGCAAUAUUACGCAUU, the “self-splicing fitness (ln)” value reads like this: (30 °C) -2.67 ± 0.13; (37 °C) -1.63 ± 0.2. As for AUCAAGCAAUAUUACGAUGG, the “self-splicing fitness (ln)” value was -3.43 ± 0.26 (30 °C) and -2.67 ± 0.2 (37 °C). Consider GGUAAGCAAUAUUACGUGGG, for which the “self-splicing fitness (ln)” value is, setting by setting: (30 °C) -4.06 ± 0.3; (37 °C) -2.36 ± 0.25. The matching figures for GCCGAGCAAUAUUACGUAAA: -2.41 ± 0.14 and -1.36 ± 0.17. As to UGGGAGCAAUAUUACGUAUA, the “self-splicing fitness (ln)” value (37 °C) was -2.74 ± 0.35.

Consider CCACAGCAAUAUUACGCUCU, for which the “self-splicing fitness (ln)” value (30 °C) was -4.07 ± 0.17 and the “self-splicing fitness (ln)” value (37 °C) is -2.1 ± 0.16.

In the case of CCUCAGCAAUAUUACGUCCA, the “self-splicing fitness (ln)” value is -2.26 ± 0.14 (30 °C) and -3 ± 0.29 (37 °C). Regarding AGAGAGCAAUAUUACGGCAA, the “self-splicing fitness (ln)” value (37 °C) is -1.48 ± 0.4.

Consider CGGCAGCAAUAUUACGAGGC, for which the “self-splicing fitness (ln)” value runs as follows: (30 °C) -2.99 ± 0.32; (37 °C) -2.53 ± 0.49. The matching figures for GAAUAGCAAUAUUACGGCGC: 0.0238 ± 0.14 and 0.023 ± 0.16. As to GUUUAGCAAUAUUACGGAAU, the “self-splicing fitness (ln)” value (30 °C) was -2.56 ± 0.31 and the “self-splicing fitness (ln)” value (37 °C) is -1.26 ± 0.31.

Turning to ACUCAGCAAUAUUACGCGGG, the “self-splicing fitness (ln)” value is, setting by setting: (30 °C) -2.91 ± 0.15; (37 °C) -2.68 ± 0.18. On to AGAGAGCAAUAUUACGAAUU, for which the “self-splicing fitness (ln)” value (30 °C) was -1.19 ± 0.2 and the “self-splicing fitness (ln)” value (37 °C) was -2.95 ± 0.32. In the case of UCCCAGCAAUAUUACGUUAA, the “self-splicing fitness (ln)” value runs as follows: (30 °C) -1.89 ± 0.093; (37 °C) -0.696 ± 0.085. The matching figures for GAGGAGCAAUAUUACGGUCU: -3.51 ± 0.48 and -0.511 ± 0.21. For UGACAGCAAUAUUACGUUCU the same measures were -0.552 ± 0.071 and -0.321 ± 0.089.

Consider GAUGAGCAAUAUUACGGGGU, for which the “self-splicing fitness (ln)” value reads like this: (30 °C) -3.36 ± 0.23; (37 °C) -2.92 ± 0.32. With CCAAAGCAAUAUUACGACUG, the “self-splicing fitness (ln)” value was -0.588 ± 0.071 (30 °C) and -0.0799 ± 0.091 (37 °C). Consider UAGAAGCAAUAUUACGGGCC, for which, under “37 °C”, the “self-splicing fitness (ln)” value was -1.9 ± 0.31. As to ACUGAGCAAUAUUACGCUAU, the “self-splicing fitness (ln)” value by setting is: (30 °C) -3.58 ± 0.15; (37 °C) -2.42 ± 0.14. The matching figures for AUUAAGCAAUAUUACGAUCA: -1.58 ± 0.17 and -0.409 ± 0.14. In the case of GCAUAGCAAUAUUACGCCUA, the “self-splicing fitness (ln)” value (30 °C) was -1.83 ± 0.13 and the “self-splicing fitness (ln)” value (37 °C) is -1.39 ± 0.12. The matching figures for CAGAAGCAAUAUUACGACCG: 0.169 ± 0.12 and 0.634 ± 0.15. With UGCCAGCAAUAUUACGGCCC, the “self-splicing fitness (ln)” value runs as follows: (30 °C) -0.651 ± 0.12; (37 °C) -0.528 ± 0.17.

As to GUGCAGCAAUAUUACGAAAC, the “self-splicing fitness (ln)” value (30 °C) is -1.82 ± 0.1 and the “self-splicing fitness (ln)” value (37 °C) was -1.26 ± 0.095.

Take CAGCAGCAAUAUUACGAGUA: the “self-splicing fitness (ln)” value by setting is: (30 °C) -3.05 ± 0.19; (37 °C) -1.77 ± 0.18.

On to UACAAGCAAUAUUACGCACG, for which the “self-splicing fitness (ln)” value reads like this: (30 °C) -1.29 ± 0.094; (37 °C) 0.0257 ± 0.1. The matching figures for GACAAGCAAUAUUACGAAUU: -1.56 ± 0.063 and -1.47 ± 0.099.

As to UGAUAGCAAUAUUACGGCUG, the “self-splicing fitness (ln)” value by setting is: (30 °C) 0.473 ± 0.11; (37 °C) -0.149 ± 0.14. The matching figures for ACCUAGCAAUAUUACGUAAG: -1.53 ± 0.065 and -0.172 ± 0.081.

Regarding GCCCAGCAAUAUUACGUAGC, the “self-splicing fitness (ln)” value was -0.413 ± 0.07 (30 °C) and -0.216 ± 0.079 (37 °C). For UCCGAGCAAUAUUACGGUAG the same measures were -3.6 ± 0.14 and -2.43 ± 0.15. Regarding UCAUAGCAAUAUUACGCGCU, for the setting “30 °C”, the “self-splicing fitness (ln)” value was -3.22 ± 0.42.

Turning to AGGCAGCAAUAUUACGCGUU, the “self-splicing fitness (ln)” value (30 °C) was -2.29 ± 0.12 and the “self-splicing fitness (ln)” value (37 °C) was -0.692 ± 0.11. For CAUUAGCAAUAUUACGCACC the same measures were -2.94 ± 0.23 and -1.53 ± 0.19. For GAGAAGCAAUAUUACGUCUG the same measures were -0.739 ± 0.13 and 0.277 ± 0.15. As for GCACAGCAAUAUUACGCGUU, the “self-splicing fitness (ln)” value was -1.29 ± 0.053 (30 °C) and -0.545 ± 0.057 (37 °C). For UCACAGCAAUAUUACGAGCG, the “self-splicing fitness (ln)” value was -0.409 ± 0.064 (30 °C) and -0.305 ± 0.093 (37 °C). For CCAAAGCAAUAUUACGUGUA, the “self-splicing fitness (ln)” value is -3.72 ± 0.14 (30 °C) and -1.97 ± 0.12 (37 °C).

In the case of AAUUAGCAAUAUUACGUAUG, the “self-splicing fitness (ln)” value is -1.04 ± 0.12 (30 °C) and -1.13 ± 0.16 (37 °C). UCACAGCAAUAUUACGCUAC: the “self-splicing fitness (ln)” value is, setting by setting: (30 °C) -3.12 ± 0.19; (37 °C) -2.77 ± 0.21. For AAUGAGCAAUAUUACGACGU the same measures were -1.13 ± 0.11 and -0.443 ± 0.12. The matching figures for CAACAGCAAUAUUACGAAUU: -4.19 ± 0.26 and -1.84 ± 0.12. In the case of GCGUAGCAAUAUUACGUAUA, the “self-splicing fitness (ln)” value reads like this: (30 °C) -2.15 ± 0.26; (37 °C) -1.52 ± 0.21. UUGUAGCAAUAUUACGGAUU: the “self-splicing fitness (ln)” value (37 °C) was -2 ± 0.34.

The values above are taken from the supplement of paper PMC7877785.
